Data set [1] deals with HpaI restriction endonuclease (recombinant) (Haemophilus parainfluenzae). As to the kind of experiment: cleavage_in_vitro. As to conditions: assay as for native enzyme; Mg2+, 37 C.
For data set [2], the system named is HpaI restriction endonuclease (native) (Haemophilus parainfluenzae). As to the kind of experiment: cleavage_in_vitro. The settings on record: 10 mM Tris pH 7.5, 10 mM MgCl2, 100 mM NaCl, 37 C.

As for phage lambda DNA, the activity in data set [1] and in data set [2] was 250000 units/mg throughout.

The values above are taken from patent US5298404.
